Test results reported in publication PMC5458272 (2017).

Target: GST
Experiment: SPR

B1: Recombinant His-tagged Aurora-A (enzyme)
chain: MDRSKENCISGPVKATAPVGGPKRVLVTQQFPCQNPLPVNSGQAQRVLCPSNSSQRIPLQAQKLVSSHKPVQNQKQKQLQATSVPHPVSRPLNNTQKSKQPLPSAPENNPEEELASKQKNEESKKRQWALEDFEIGRPLGKGKFGNVYLAREKQSKFILALKVLFKAQLEKAGVEHQLRREVEIQSHLRHPNILRLYGYFHDATRVYLILEYAPLGTVYRELQKLSKFDEQRTATYITELANALSYCHSKRVIHRDIKPENLLLGSAGELKIADFGWSVHAPSSRRTTLCGTLDYLPPEMIEGRMHDEKVDLWSLGVLCYEFLVGKPPFEANTYQETYKRISRVEFTFPDFVTEGARDLISRLLKHNPSQRPMLREVLEHPWITANSSKPSNCQNKESASKQS
- Kd: > 5 µM
